# The nanobody polyreactivity screen of Harvey et al. (2022)
# Test: yeast display, Sf9 membrane polyspecificity reagent, FACS + sequencing; frameworks hold sequencing errors
# How it was run: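 A synthetic nanobody library was expressed on Saccharomyces cerevisiae BJ5465 by galactose induction for 36–48 hours. The library was stained for 1 hour at 4 °C with 10% biotinylated, detergent-solubilized Sf9 membrane reagent and enriched with streptavidin microbeads before FACS. Low and high (top ~1%) gates were set on anti-HA fluorescence for expression and streptavidin fluorescence for reagent binding, and each polyreactivity label reflects the gate of origin.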
row,Sequence,polyreactivity (PSR sort gate)
1,QVQLVESGGGLVQAGGSLRLSCAASGSTFGANAKGWYRQAPGKARALVAAITWSGGSTYYADSVKGRFTISRDNAKNTVFLQMNSLKPEDTAVSYCNAVARWYVLQVYEYDYWGQGTQVTVSS,low polyreactivity
2,QVQLVESGGGLVQAGGSLRLSCAASGSTFGANAMGWYRQAPGKEREFVAAISRSGVRTYYADSVKGRFTISRDNAKNTVYLQMNSLKPEDTAVYYCAARFWYDYRHYDYWGQGTQVTVSS,low polyreactivity
3,QVQLVESGGGLVQAGGSLRLSCAASGSTFGANAMGWYRQARGKEREFVAAISRSGVRTYYADSVKGRFTISRDNAKNTVYLQMNSLKPEDTAVYYCAADGYWWTYTRYDYCGQGTQVTVSS,low polyreactivity
4,QVQLVESGGGLVQAGGSLRLSCAASGSTFGDNAMGWYRQAPGKERELVATITWSDDSTYYADSVKGRFTISRDNAKNTVYLQMNSLKPEDTAFYYCAADVDSYLLIGAVEYDYWGHGTQVTVSS,low polyreactivity
5,QVQLVESGGGLVQAGGSLRLSCAASGSTFGDNTMGWYRQAPGKERELVAAISRRGGSTYYADSVKGRFTISRDNAKNTVYLQMNSLKPEDTAVYYCADEWQQLGGPVYYWGQGTQVTVSS,high polyreactivity
6,QVQLVESGGGLVQAGGSLRLSCAASGSTFGDYAMGWYRQAPGKERELVAAITIGGITTYADSVKGRFTISRDNAKNTVYLQMNSLKPEDTAVYYCNADDYQYKTWYHLDYWGQGTQVTVSS,low polyreactivity
7,QVQLVESGGGLVQAGGSLRLSCAASGSTFGFYAMGWYRQAPGKERELVAAISGRGGSTYYADSVKGRFTISRDNAKNTVYLQMNSLKPEDTAVYYCNADWQDDLAGYDVDYWGQGTQVTVSS,low polyreactivity
8,QVQLVESGGGLVQAGGSLRLSCAASGSTFGFYAMGWYRQAPGKERELVAAITGSGGSTYYADSVKGRFTISRDNAKNTVYLQMNSLKPEDTAVYYCNRYGVRYYRYDYWGQGTQVTVSS,high polyreactivity
9,QVQLVESGGGLVQAGGSLRLSCAASGSTFGFYAMGWYRQAPGTERELVAVISSGDSPYYADSVKGRFTISRDNAKNTVYLKMNSRKPEDTAVYYCAKDALVIDGGGGYDYWGQGTQVTVSS,low polyreactivity
10,QVQLVESGGGLVQAGGSLRLSCAASGSTFGFYAMGWYTHAPGKERELVAGITRVGSTNYADSVKGRFTISRDNAKNTVYLQMNSLKPEVTAVYYCNRRYTPYTWPYGYWGQGTQVTVSS,high polyreactivity
11,QVQLVESGGGLVQAGGSLRLSCAASGSTFGGYALGWDRQAPGKDRELVAAISRSGGRTYYADSVKGRFTISRDNAQNTVYLQMNSLKPEATAVYDCYPYYIASTFDYWGHGTQVTVSS,high polyreactivity
12,QVQLVESGGGLVQAGGSLRLSCAASGSTFGGYAMGRYRQAPGKERELVAAISNGDRTNYADSVKGRFTISRDNAKNTVYLQKNSLKPEETAVYYCATRTLFRYPNYGNNLWGYDYWGQGTQVTVSS,low polyreactivity
13,QVQLVESGGGLVQAGGSLRLSCAASGSTFGGYAMGWSRQAPGKERELVARITRSGGRTYYADSVKGRFTISRDNAKNTVYLQMNSLKPEDTAVYYCNKQLLISRQIQYEYWGQGTQVTVSS,low polyreactivity
14,QVQLVESGGGLVQAGGSLRLSCAASGSTFGGYAMGWYRQAPGKERELVAAINSGGSTYYADSVKGRFTISRDNAKNTVYLQMNSLKPEDTSVYYCNADSQVLRDYISDYWGQGTQVTVSS,low polyreactivity
15,QVQLVESGGGLVQAGGSLRLSCAASGSTFGGYAMGWYRQAPGKERELVAAITWSGDTYYADSVKGRFTISRDYAKNTVYLQMNSLKPEDTAVYYCAASYLGFHMSYDYWGQGTQVNVSS,high polyreactivity
16,QVQLVESGGGLVQAGGSLRLSCAASGSTFGGYVMGWYRQAPGKERELVAAISGNGASTTYADSVKGRFTISRDNAKNTFYLQMNSLIPEDTAVFYCAAMYRKAHSDYDYWGQGSQVTVSS,low polyreactivity
17,QVQLVESGGGLVQAGGSLRLSCAASGSTFGGYVMGWYRQAPGKERELVAAISGNGASTTYADSVKGRFTISRDNAKNTVYLQLNSLKPEDTAVYYCAALYRKAHSDYDYWGQVTQVTVSS,low polyreactivity
18,QVQLVESGGGLVQAGGSLRLSCAASGSTFGHNVMGWYRQAPGKERELVAVISWRGGSTSYADSVKGRFTISRDNAKNTVYLQMNSLKPEDTAVYYCAKPALRYSSRYDSWGQGTQVTVSS,high polyreactivity
19,QVQLVESGGGLVQAGGSLRLSCAASGSTFGINAMGWSRQAPGKERELVAAISWRGGSTYYADSVKGRFTISRDNSKNTVYLQMNSLKPEDTAVYYCAADTFYWVGHYYVETYDYWGQGTQVTVSS,high polyreactivity
20,QVQLVESGGGLVQAGGSLRLSCAASGSTFGINAMGWYRQAPGKERELVAAIDASGGTTYFADSVKGRFTISRDNAKNTVYLQMNSLKPEDTAVYYCAADDNYYTFGYWGQGTQVTVSS,high polyreactivity
21,QVQLVESGGGLVQAGGSLRLSCAASGSTFGINTMGWYRQAPGKERELVASINRGGTTNYADSVKGRFTISRDNAKNTVYLQMNSLKPEDTAVYYCNARYYVTRLSRFRYGYWGQGTQVTVSS,high polyreactivity
22,QVQLVESGGGLVQAGGSLRLSCAASGSTFGIYARGGYRQAPGNERELVAAISWRGGRTYYADSVKGRFTISRDNAKNTVYLQMNSLKPEDTAVYYCAADLAVYYIFLALEFNYWGQGTQVTVSS,low polyreactivity

row,Sequence,polyreactivity (PSR sort gate)
1,QVQLVESGGGLVQAGGSLRLSCAASGSTFGKYAMGWYRQAPGKERELVAAITWSGASTFYADSVKGRFTISRDNAKNTVYLQMNSLKPEDTAVYYCAARSYKSYYIFDYWGQGTQVTVSS,low polyreactivity
2,QVQLVESGGGLVQAGGSLRLSCAASGSTFGLNAMGWYRQAPGKERELVAAITRSDITNYADSVKGRFTISRDNAKNTVYLQMNSLKPEDTAVYYCNKTPDRHRRYFGYGYWGHGTQVTVSS,low polyreactivity
3,QVQLVESGGGLVQAGGSLRLSCAASGSTFGLNAMGWYRQAPGKERELVAAITSGGTYYADSVKGRFTISRDNAKNTVYLQMNSLKPEDTAVYYCAADGTWSIYGGLYYWGQGTQVTVSS,low polyreactivity
4,QVQLVESGGGLVQAGGSLRLSCAASGSTFGLYAMGRYRQAPGKERELVAAIRYSDGSTYYADSVKGRFTISRDNAKNTVYLQMNSLKPEDTAVYYCAAEIGTYFHVPTEYDYWGQGTQVTVSS,low polyreactivity
5,QVQLVESGGGLVQAGGSLRLSCAASGSTFGLYAMGWYRQAPGKERELVAAIRWSGGRTYYADSVKGRFTISRDNAKNTVYLQMNSLKPEDTAVYYCAARSLRSKNDYWGQGTQVTVSS,high polyreactivity
6,QVQLVESGGGLVQAGGSLRLSCAASGSTFGLYAMGWYRQAPGKERELVAAISYSGSSTYYADSVKGRFTISRDNAKNTVYLQMNSLKPEATAVYYCAARRSEHGYNYWGQGTQVSVSS,high polyreactivity
7,QVQLVESGGGLVQAGGSLRLSCAASGSTFGNAMGWYRQAPGKERELVAAISGSGSDTYYADSVKGRFTISRDNAKNTVYLQMNSLKPEDTAVYYCNTGWDPYGYDYWGQGTQVTVSS,low polyreactivity
8,QVQLVESGGGLVQAGGSLRLSCAASGSTFGPNAMGWYRQAPGKERELVAAIRSNGGRTYYADSVKGRFTISRDNAKNSVYLQMNSLKPEDTAVYYCAAPHYPYDTPYGYWGQGTQVTVSS,low polyreactivity
9,QVQLVESGGGLVQAGGSLRLSCAASGSTFGPYAMGWYRQAPGKERELVAAIRSDGGTYYADSVKGRFTISRDNAKNTVYLQMNSLKPEDTAVYYCNAVRGAAWRCYNSWQTYPRDYWGQGTQVTVSS,high polyreactivity
10,QVQLVESGGGLVQAGGSLRLSCAASGSTFGPYAMGWYRQAPGKERELVAAISRGGSTYYADSVKGRFTISRDNAKNTVYLQMNSLKPEDTAVYYCAARYVRVGYDYWGQGTQVTVSS,high polyreactivity
11,QVQLVESGGGLVQAGGSLRLSCAASGSTFGPYAMGWYRQAPGKERELVATITRNGGSTYYADSVKGRFTISRDNAKNTVYLQMNSLKPEDTAVYYCNAEGRWSSFTQRMDYWGQGTQVTVSW,low polyreactivity
12,QVQLVESGGGLVQAGGSLRLSCAASGSTFGPYDMGWYRQAPGQERDLVAAITRSGGRTYYADSVKGRFTFSRDNAKNTVYLQKNSLKPEDTAVYYCAAPPSEATSQRYKYNYWGQGTQVTVSS,high polyreactivity
13,QVQLVESGGGLVQAGGSLRLSCAASGSTFGPYVMGWYRQAPGKERELVAAISRIGGRTYYADSVKGRFTISRDNAKNTVYLQMNSLKPEDTAVYYCAAKVGLYGDDYWGQGTQVTVSS,high polyreactivity
14,QVQLVESGGGLVQAGGSLRLSCAASGSTFGRNALGWYRQAPGKERELVASISWGGGSTYYADSVKGRFTISRDNAKNTVYLQMNSLKPEDTAVYYSNARRFLWSQLSGSFSYDYWGQGTQVTVSS,high polyreactivity
15,QVQLVESGGGLVQAGGSLRLSCAASGSTFGRNAMGWYRQAPGKERELVAAITASGGTTYYADSVKGRFTISRDNAMNTVYLQMNSLKPEDTAVYYCARAGHFSFKYDYWGQGTQVTVSS,low polyreactivity
16,QVQLVESGGGLVQAGGSLRLSCAASGSTFGRNAMGWYRQAPGNERELVAAISKRGGSTYYADSVKGRFTISRDNAKNTVYLQMNSLKPEDTAVYYCAKDVEGLGRRYRWYNYWGQGTQVTVSS,high polyreactivity
17,QVQLVESGGGLVQAGGSLRLSCAASGSTFGRYAKGWYRQAPGKERQLVAAISSSGVTTYYADSVKGRFTISRDNAKNSVYLQINSLKPEDTAVYYCSQTYKYHRWITKYGYWGQGTQVTVSS,high polyreactivity
18,QVQLVESGGGLVQAGGSLRLSCAASGSTFGRYAMGWYRQAPGKERELVAAISRGTTTNYADSVKGRFTIARDNAKNTVYLQMNSLKPEDTAVYYCAADQPSKRYYSWGQGTQVTVSS,low polyreactivity
19,QVQLVESGGGLVQAGGSLRLSCAASGSTFGRYAMGWYRQAPGKERELVAAISRGTTTNYADSVKGRFTISRDNAKNTVYLQMNILKPEDTAVYYCAAQTDSVESDYWGQGTQVTVSS,low polyreactivity
20,QVQLVESGGGLVQAGGSLRLSCAASGSTFGRYAMGWYRQAPGKERELVAAISRRGASTYYADSVKGRFTISRDNAKNTVYLQMNSLKPEDTAVYYCATGYPIDLGREFDYWGQGIQVTVSS,high polyreactivity
21,QVQLVESGGGLVQAGGSLRLSCAASGSTFGRYVMGRYRPAPGKERELVAAISGSGGSTYYADSVKGRFTISRDNAKNTVYLQMNSLKPEDTAVYYCAARVAHYEYYWGQGTQVTVSS,high polyreactivity
